Target: T1, hnRNP-Q2 (SYNCRIP, hnRNP-Q isoform 2) (mouse (cDNA from Krebs-2 cells), UniProt Q7TMK9-2 1-562)
T1 sequence: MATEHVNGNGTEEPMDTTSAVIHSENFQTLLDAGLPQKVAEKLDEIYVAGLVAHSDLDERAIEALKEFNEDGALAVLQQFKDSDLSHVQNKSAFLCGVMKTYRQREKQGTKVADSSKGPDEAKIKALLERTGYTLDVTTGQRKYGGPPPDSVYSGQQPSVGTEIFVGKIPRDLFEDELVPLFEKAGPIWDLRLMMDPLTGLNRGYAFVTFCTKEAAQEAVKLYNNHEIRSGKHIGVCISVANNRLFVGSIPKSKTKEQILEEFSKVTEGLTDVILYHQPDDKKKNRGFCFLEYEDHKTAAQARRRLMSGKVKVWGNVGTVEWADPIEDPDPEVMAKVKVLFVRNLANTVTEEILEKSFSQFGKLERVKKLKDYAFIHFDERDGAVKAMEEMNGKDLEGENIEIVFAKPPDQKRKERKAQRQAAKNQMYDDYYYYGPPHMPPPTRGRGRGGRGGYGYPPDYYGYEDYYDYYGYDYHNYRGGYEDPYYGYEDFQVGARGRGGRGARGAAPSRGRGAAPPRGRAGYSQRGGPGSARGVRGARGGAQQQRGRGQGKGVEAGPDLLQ
Experiment: EMSA; apparent Kd, 2 mM Mg2+; three experiments; EMSA: 20 mM HEPES-KOH pH 7.3, ~100 mM KCl, 2 mM MgCl2, 1 mM DTT, 0.05% NP40, 5% glycerol, 0.1 mg/ml acetylated BSA (plus 2 ul protein in buffer A), 30 C 30 min, gel at 4 C; UV crosslinking in nuclease-treated RRL
Conditions: protein: recombinant; tags: C-terminal His6 (pET28a); label: 5' 32P; single strand

B1: oligo(A)30 (ssRNA)
RNA: AAAAAAAAAAAAAAAAAAAAAAAAAAAAAA
Q: With B1 as the binder, how does the Kd read?
A: ~30 nM
